B1: Ac-DMQD-CHO (peptide)
peptide: Ac-DMQD-aldehyde
SMILES: CSCC[C@H](NC(=O)[C@H](CC(=O)O)NC(C)=O)C(=O)N[C@@H](CCC(N)=O)C(=O)N[C@H](C=O)CC(=O)O
notes: source: bought: Peptide Institute, Inc (synthetic peptide)
B2: Ac-DNLD-CHO (peptide)
peptide: Ac-DNLD-aldehyde
notes: tetrapeptide designed by the computational APF method; so far not known in any natural caspase substrate; source: synthetic peptide (synthesized by Peptide Institute, Inc)
B3: Ac-DEVD-CHO (peptide)
peptide: Ac-DEVD-aldehyde
notes: as for B1
B4: Ac-DQTD-CHO (peptide)
peptide: Ac-DQTD-aldehyde
SMILES: CC(=O)N[C@@H](CC(=O)O)C(=O)N[C@@H](CCC(N)=O)C(=O)N[C@H](C(=O)N[C@H](C=O)CC(=O)O)[C@@H](C)O
notes: as for B1

Assays:
Assay in all cases: enzyme inhibition assay (fluorogenic substrate cleavage); one unit of active recombinant human caspase incubated with various concentrations of peptide inhibitor in 100 mM NaCl, 50 mM HEPES, 10 mM DTT, 1 mM EDTA, 10% glycerol, 0.1% CHAPS, pH 7.4, 37°C, 30 min; then 200 μM substrate (Ac-DEVD-MCA for caspases-3 and -7, Ac-IETD-MCA for caspase-8, Ac-LEHD-MCA for caspase-9); apparent Ki = IC50/(1+[S]/Km)
Details in all cases: both partners purified
[1] = biological target: Recombinant human caspase-8 (active) (human, UniProt Q14790 1-479)
Sequence of Recombinant human caspase-8 (active) (Q14790 whole entry): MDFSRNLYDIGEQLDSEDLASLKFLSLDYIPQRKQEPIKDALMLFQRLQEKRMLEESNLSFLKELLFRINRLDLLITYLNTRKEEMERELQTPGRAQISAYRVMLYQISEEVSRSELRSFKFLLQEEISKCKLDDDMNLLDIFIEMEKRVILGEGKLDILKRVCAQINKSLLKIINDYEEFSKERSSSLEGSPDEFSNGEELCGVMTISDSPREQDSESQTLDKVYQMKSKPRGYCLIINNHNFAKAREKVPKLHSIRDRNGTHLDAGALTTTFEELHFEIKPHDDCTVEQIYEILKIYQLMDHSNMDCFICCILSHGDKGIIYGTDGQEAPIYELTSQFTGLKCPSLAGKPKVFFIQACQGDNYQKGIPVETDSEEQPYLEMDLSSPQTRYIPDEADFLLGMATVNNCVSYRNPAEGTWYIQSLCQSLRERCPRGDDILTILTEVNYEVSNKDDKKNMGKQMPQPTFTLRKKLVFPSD

[2] = biological target: T1, Recombinant human caspase-3 (active) (human, UniProt P42574 1-277)
T1 sequence (P42574 whole entry): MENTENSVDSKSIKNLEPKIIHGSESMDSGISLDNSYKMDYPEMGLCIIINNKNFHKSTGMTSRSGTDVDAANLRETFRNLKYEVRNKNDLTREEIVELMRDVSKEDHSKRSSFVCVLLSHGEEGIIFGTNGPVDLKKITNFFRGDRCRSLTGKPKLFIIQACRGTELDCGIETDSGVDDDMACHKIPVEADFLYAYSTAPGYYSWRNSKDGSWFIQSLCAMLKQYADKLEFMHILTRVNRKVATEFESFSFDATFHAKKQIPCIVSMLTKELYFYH

[3] = biological target: T2, Recombinant human caspase-7 (active) (human, UniProt P55210 1-303)
T2 sequence (P55210 whole entry): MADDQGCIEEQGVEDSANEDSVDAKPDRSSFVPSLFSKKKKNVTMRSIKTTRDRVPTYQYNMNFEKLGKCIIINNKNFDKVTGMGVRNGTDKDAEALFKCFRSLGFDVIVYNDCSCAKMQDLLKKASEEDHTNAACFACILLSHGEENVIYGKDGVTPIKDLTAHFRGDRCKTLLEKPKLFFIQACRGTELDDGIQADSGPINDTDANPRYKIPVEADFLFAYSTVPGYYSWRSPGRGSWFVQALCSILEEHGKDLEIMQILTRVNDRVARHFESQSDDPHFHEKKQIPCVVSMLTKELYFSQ

[4] = biological target: T1, Recombinant human caspase-3 (active); remark: listed apart in the source
[5] = biological target: T2, Recombinant human caspase-7 (active); remark: listed apart in the source

Binder | Ki [1] | Ki [2] | Ki [3] | IC50 [4] | IC50 [5]
B1 | > 200 nM | 13.3 ± 0.3 nM | > 200 nM | 193 nM | –
B2 | > 200 nM | – | – | – | –
B3 | 0.597 ± 0.095 nM | – | 4.48 ± 0.21 nM | – | 19.7 nM
B4 | 9.75 ± 1.09 nM | 1.27 ± 0.11 nM | 21.8 ± 1.1 nM | – | –
